Patent publication US20260242478A1 (published 2026)

B1: Phage-3892 (peptide)
peptide: DYWYCQPAWMCTGL
notes: tested as crude clonal phage supernatant
B2: Phage-3893 (peptide)
peptide: LVPRCLPEWMCTGF
notes: as for B1
B3: Phage-3884 (peptide)
peptide: TEPACVPPWMCVGW
notes: as for B1
B4: Phage-3886 (peptide)
peptide: TEHQCVPAWMCGGF
notes: as for B1
B5: Phage-3938 (Peptide-180 library clone) (peptide)
peptide: MQDFCKPLWMCSGF
notes: Tested as clonal phage supernatant; not shown: fused to the pIII filament protein of the bacteriophage
B6: Phage-3887 (peptide)
peptide: ILRHCTPEWMCIGL
notes: as for B1
B7: Phage-3897 (peptide)
peptide: LTLKCAPAWMCNGF
notes: as for B1
B8: Phage-3931 (Peptide-180 library clone) (peptide)
peptide: PTIMCIPVWMCQAF
notes: as for B5
B9: Phage-3935 (Peptide-180 library clone) (peptide)
peptide: PGFWCQPKWMCEGF
notes: as for B5
B10: Phage-3885 (peptide)
peptide: GMVRCVPDWMCYGF
notes: as for B1
B11: Phage-3926 (Peptide-180 library clone) (peptide)
peptide: VERFCEPAWMCIGL
notes: as for B5
B12: Phage-3896 (peptide)
peptide: PDVHCVPRWMCDGL
notes: as for B1

How the values were obtained:
PSMA Fab (006 PSMA Fab) [1] = biological target: T1, PSMA Fab (006 PSMA Fab); test: clonal phage supernatant on biotinylated PSMA Fab captured on neutravidin plate, anti-M13-HRP detection;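 note: before phage were added, wells received PSMA antigen in blocking buffer or blocking buffer alone, with no wash in between, followed by a short phage incubation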
T1 construct: also called Anti-PSMA Fab
Description: (§1) Clonal phage were harvested as crude supernatants and screened via standard ELISAs. […] Prior to the addition of clonal phage. wells were incubated with blocking buffer and PSMA antigen or blocking buffer alone. Without washing or aspirating, clonal phage supernatants were then added to the wells and incubated for a short time. Wells were then washed followed by detection of bound phage using a horse radish conjugated anti-M13 antibody.

PSMA Fab (006 PSMA Fab) [2] = biological target: T1, PSMA Fab (006 PSMA Fab); test: phage ELISA on captured PSMA Fab pre-incubated with the competitor PSMA antigen, anti-M13-HRP detection
Description: as §1

006 PSMA Fab [3] = biological target: T2, 006 PSMA Fab (biotinylated (site not stated)); test: clonal phage ELISA; biotinylated PSMA Fab on neutravidin plate pre-incubated with PSMA antigen as competitor, anti-M13-HRP detection
T2 construct: also called Anti-PSMA Fab

006 PSMA Fab [4] = biological target: T2, 006 PSMA Fab; test: clonal phage ELISA; biotinylated PSMA Fab on neutravidin plate, blocking buffer alone, anti-M13-HRP detection;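 note: crude clonal phage supernatants added without washing to wells preincubated with PSMA antigen or with blocking buffer alone, briefly incubated, then washed before bound phage detection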
Description: as §1

006 PSMA Fab [5] = biological target: T3, 006 PSMA Fab; test: clonal phage ELISA; biotinylated PSMA Fab captured on neutravidin plate, blocking buffer alone; bound phage detected with anti-M13 HRP
T3 construct: In the phage ELISA the PSMA Fab was biotinylated and captured on neutravidin coated plates; also called Anti-PSMA Fab
Description: as §1

006 PSMA Fab [6] = biological target: T3, 006 PSMA Fab; test: clonal phage ELISA; biotinylated PSMA Fab captured on neutravidin plate, wells pre-incubated with PSMA antigen as competitor; bound phage detected with anti-M13 HRP
Description: as §1

PSMA Fab (006 PSMA Fab) [7] = biological target: T4, PSMA Fab (006 PSMA Fab); test: phage binding ELISA; biotinylated PSMA Fab on neutravidin plate, clonal phage supernatant, anti-M13 HRP detection;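 note: wells were preincubated with blocking buffer either containing PSMA antigen or without it before crude phage supernatant was added, briefly incubated, then washed prior to detection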
T4 construct: also called Anti-PSMA Fab; anti-PSMA Fab
Description: as §1

Binder | Phage binding ELISA signal, Anti-PSMA Fab (PSMA Fab (006 PSMA Fab) [1]) | phage binding ELISA signal, Anti-PSMA Fab in the presence of PSMA (PSMA Fab (006 PSMA Fab) [2]) | Phage binding ELISA signal, Anti-PSMA Fab in the presence of PSMA antigen (006 PSMA Fab [3]) | Phage binding ELISA signal, Anti-PSMA Fab (006 PSMA Fab [4]) | further results
DRVLCTPTWMCEGF [Phage-3917] | 1.01 | 0.0642 | – | – | –
B1 | – | – | 0.0585 | 1.1 | –
ESRACVPNWMCHGL [Phage-3911] | 1.03 | 0.06 | – | – | –
YARECIPQWMCGGF [Phage-3939] | – | – | – | – | Phage binding ELISA signal, Anti-PSMA Fab (006 PSMA Fab [5]): 0.918; Phage binding ELISA signal, Anti-PSMA Fab with PSMA antigen (006 PSMA Fab [6]): 0.0765
B2 | – | – | 0.0848 | 1.09 | –
AQKLCEPMWMCVGF [Phage-3918] | 1 | 0.064 | – | – | –
YQMLCVPEWMCSGL [Phage-3915] | 1.02 | 0.0874 | – | – | –
B3 | – | – | 0.128 | 1.12 | –
QNFHCVPQWMCDWL [Phage-3913] | 1.02 | 0.0986 | – | – | –
B4 | – | – | 0.0809 | 1.11 | –
ATVRCMPMWMCHGF [Phage-3912] | 1.03 | 0.0901 | – | – | –
B5 | – | – | – | – | Phage binding ELISA signal, Anti-PSMA Fab (PSMA Fab (006 PSMA Fab) [7]): 0.921
B6 | – | – | 0.0689 | 1.11 | –
B7 | – | – | 0.0619 | 1.08 | –
B8 | – | – | – | – | Phage binding ELISA signal, Anti-PSMA Fab (PSMA Fab (006 PSMA Fab) [7]): 0.966
B9 | – | – | – | – | Phage binding ELISA signal, Anti-PSMA Fab (PSMA Fab (006 PSMA Fab) [7]): 0.93
GAYTCVPAWMCQGF [Phage-3922] | 0.979 | 0.0665 | – | – | –
B10 | – | – | 0.0613 | 1.11 | –
AQVLCVPNWMCTGF [Phage-3920] | 0.985 | 0.0618 | – | – | –
FGVKCEPRWMCNGF [Phage-3914] | 1.02 | 0.0693 | – | – | –
B11 | – | – | – | – | Phage binding ELISA signal, Anti-PSMA Fab (PSMA Fab (006 PSMA Fab) [7]): 0.972
IEAQCRPVWMCHGF [Phage-3923] | 0.978 | 0.0779 | – | – | –
LVRMCQPPWMCDGF [Phage-3941] | – | – | – | – | Phage binding ELISA signal, Anti-PSMA Fab (006 PSMA Fab [5]): 0.912; Phage binding ELISA signal, Anti-PSMA Fab with PSMA antigen (006 PSMA Fab [6]): 0.0699
EFRECRPPWMCQGL [Phage-3944] | – | – | – | – | Phage binding ELISA signal, Anti-PSMA Fab (006 PSMA Fab [5]): 0.899; Phage binding ELISA signal, Anti-PSMA Fab with PSMA antigen (006 PSMA Fab [6]): 0.0789
B12 | – | – | 0.0633 | 1.08 | –
